Experiment: soluble on expression in E. coli; label from the status in PepcDB or PDB records

Soluble on expression in E. coli, not soluble:
MGSDKIHHHHHHMKYQQKLRNMIDFIGKHLDEELSLESLSEIFCISKFHFHRLFTAFTGLSLQQYIKWLRLKRAAHQLIVDKDQSVINIAINAGFESHEAFSRAFKKACGFSPSQFRQGFGRSYWEQPPYCLPGQSRTDMKVDIKSIDKIRLAVIEHKGDPKLLGESINKLVSWAKSQSINLKPRAGEAFALAYDDPKTTPPSDFRIDLGIKVPENLKLDGVIEKFLPSGRYAVTVHKGSRNNIGDVVYYLYRDWLPNTSEQLGDLPCIFCYYNFDHEVAETELLTECWLLLK
MGSDKIHHHHHHMKYYICVCVFLLLNACNSDFSTNQEDIKYPSDKEKSKSNMEASSKEEDPNKKIKNTLLNDLINLIEIANEHKEKYEKRMQEEPSDQYGILAFQELDLSVGKISEDTPQSKKFRKNTYSPLSAIDVNKLKDLSEIIRNSGQIQGLFNIFNRFGGIFDDSLNHVYSKKDILGGLEILDLDKLKNSFEKLLSIKETFSKMLNQLLLDYKNDKDHIRTETNKLKSHTTALFEQLDKKEDEAYEPKNQIFSISNL
MGSDKIHHHHHHMLANGDVPILQLQHIIKRFGNQVAVNDVSLNIHRGEIVALLGENGAGKSTLIKILAGLYSRDEGEIYFHQQKIQSAQSLTNKNKQPIAFIHQDLGLVEWMTIAENMAFVMGFPRRFGLIDWKKINQQAQEALDFVGIHLSAQTRVFDLSRTEKALLTIARAIAVNAEILVLDEPTASLPASDVEHLFKVLNRLRKQGVGMIYVTHRLDEVIRLSDRILVMRDGYSVAEGSTKDYDVKALVKAIVGEETREKQREPLPKNTPEVVRLNEVVVGDTGPVSFSLHQGEMIALAGLRGAGQEEIGRLLFGLRKLESGDISLNECAYHAESPCEAIYKGVALVAGDRIREGLVMSMTTMENLFINPILSGHFPLKNYASKKERSECWYQFQLFDIRPKNLFIEVSSLSGGNQQKIVLARWMQLNTPVLILEDPTAGVDVGARAEIYDLLNQALKKGVAIIVISNDFEEIAHLCNRALVFNRGDIVGELFNEQVTFANLLALASDASATIN
MGSDKIHHHHHHMLCENCHFNEAEVKLTVKGIDSTHEKWVCSVCAQGENPWLHSNDDNTYHTHQDDIEEAFVVKQILQHLAAKHGINFHEMAFKEEKKCPTCQMTLKDIAHVGKLGCADCYATFKEDIIDIVQRVQGGQFEHVGKTPQSSYKKLAIKKQIEEKSKYLNKLIDGQEFEEAAIVRDEIKALKSESEVSHDE
MGSDKIHHHHHHMLDLKQIGASESRQLKQAHDRGQLSHAYLLLSSDEVEALNTAYWLICYVNCTGEKKPDGTCPACRRILAGNHPDVFLIDTEENKQSIAIDQIRPLKQELAKSPLEGDRRYFVINHAQKLTLPAANALLNLLEEPAAPVVTFLIANNGGQILPTIKSRTQIINFSQQAASSKDRLLLANGMSQEEVDQVKSSQEVDQAVKFFYQELREHDSLAIVSAHQLAGLVKKQKQGTKAWEKYVWILLKKWGEKDLEKGDCQEAANFLADLMRVDQMRQSNVGFLNNLDYLALKWQQ
MGSDKIHHHHHHMLDLNHGSGCQYQKPDRDPGITVAVNAAIDAALVVRNRSQVARQYVSTSGIGRECLRQIQYDYLAVPKDEGRDFEPKTLRIFEAGHRGEDVVAAWLRAAGFDLRTERRDGRQFGFSALNGRFKGHIDGCLVGGPVAMAYPALWENKALGVSSWKDVVKRGVVLSKPVYAAQLALYQAYMDLPAPTLFTALNRDTWEIHCELVPFDAALAQTMSDRAVQVVRASDAQELLPRASAERTSVICRGGKTAGGWHGACSWQDRCWGRCR
MGSDKIHHHHHHMLELRHLRTLIALRDAGSLVEAAERVHLTQSALSHQIKDLEERLGSPLFLRKTRPVTFTRAGERLLALAEQILPQIRMAERDLARLAGHEQGRLHMAIECHSCFQWLMPTIDHFRDHWPEVEVDIPSGYSFDALPSLARESLDLVITADPQPLAGIHYEPLFRYEGLLAVGKQHPLARRDWVTPEELARETLITYPVEHTRLDVFTQFLTPAGFTPAEVRTAELTIMMMQLVASGRGVCALPNWALTEYLERGYVRALHLGEQGVWSTLFAAIREESRDAPWMEDFLRTARETSFAVLAGIKPA
MGSDKIHHHHHHMLERTTRHVRPSLDGQAFYERCTQILSELDDAESSLRNVIAQPRGLLRVDLSGAHATKIVLPNIDQFHELYPDIELVISTGDRLVDLIREGIDCVVRAGRLDDSTLIARHLVDMPQVICASPDYLNKHGTPEQPEDLLSHYCVNFFSTSGGRNYPFELMVNGKKQDYFLKSWIAVNDAENYVLSALQGAGLIQVPHYHVANELKNGRLVEVLSEWESPKMSVSALYPQHRQLSPRVRVFVAWLSELYTGYFANFEYPQK
MGSDKIHHHHHHMLESYITVKQDGFSEIEIKKSRFICSVKRVTSEEEAKAFIAAIKKEHWKANHNCSAFVIGEKNDIQRSSDDGEPSGTAGVPMLEVLKKKELINVVAVVTRYFGGIKLGTGGLIRAYSHALSHTLDEIGLVIGKLQQELLITIAYPLLGKAQAFLEHSPYTLKETIYTESIQLICLVDEQATETFIAEMTDLLNGQLTIEKGATSYHELPFNEKGAQANDI
MGSDKIHHHHHHMLFDTSPKDNRKDFFDREKEIEKLKGLRAPITLVLGLRRTGKSSIIKIGINELNLPYIYLDLRKFEERNYISYKDFLLELQKEINKLVKRLPSLLKALKNIQGIVIMGNEIKFNWNRKDRLSFANLLESFEQASKDNVIIVLDEAQELVKLRGVNLLPALAYAYDNLKRIKFIMSGSEMGLLYDYLRVEDPESPLFGRAFSTVELKPFSREEAIEFLRRGFQEADIDFKDYEVVYEKIGGIPGWLTYFGFIYLDNKNLDFAINQTLEYAKKLILKEFENFLHGREIARKRYLNIMRTLSKCGKWSDVKRALELEEGIEISDSEIYNYLTQLTKHSWIIKEGEKYCPSEPLISLAFS
MGSDKIHHHHHHMLFYLPVTGQNTAVYPDQFGAYFNNMHLVTPSYFPKDVKVNLSLSYKSRTGALNKISTFNVAFTRVFNHTKPTNHLIRIYFYNEKDGPYIHRPRAYINYGYKIALSKQVNIAAGAAFGFAQTAFTAPSSTANGNSISPDASIGLSLQVKNFEAGFSVCQLLNSEVNPVVAPIIYRRYYNTYLSYHADLSPFIKLKSGMLWRALPTYDDDLNIYSMLEYKETISFGGCYRYNKNFSFVVSTNIHIGKESILLSFVYNTPFFTKLPAWTDSVELNGGYNFY
MGSDKIHHHHHHMLGLKLPTDPRWVEIVETNIPEILTDHAYCEQKATTNAMYIVINFPEYTELVSDMIDLAQEELQHFKMVHDIIKKRGLVLGRARAAPYAGDIYAFMRKGHIRKYVLIDRLLFSALIEARSCERFRLLSEQISDPELKEFYRELMISEATHYTTFINYARKYSEGEDIDKRWQEFLAYEATVISKYGDNATMHG
MGSDKIHHHHHHMLHGKVLVAQGGGPTAVINQSMVGAVLESRKFRNVDLVYGAHHGVRGIVNEDFLDLTQETSHNLEMVAQTPSSGLGSTRDKPDLKYCHEIFEVLKAHGIAYFFYIGGNDSSDTVRIVSEEARKAGYPLRCIHIPKTIDNDLVLNDHTPGFPSAARFVAQAFMGVNLDNAALRGIYLAVVMGRHAGFLTAASALGKKFPEDGPHLIYIPERTFRVDSFLTDVKATYDKYGRCVVALSEGIHDEDGAPIITKLSKATEKDAHGNIQLSGTGALSDLLCEEIKGKLGIKRVRGDTFGYLQRSFIGCVSDVDQREAREVGEKAVQFAMWGDQDGSVTIQRTGFYSVDYKLLPLAAVAGKTRVMEDHFIAESGTDVTDSFRMYLRPLLGSGMPDAFRLRLNSVPRILKK
MGSDKIHHHHHHMLHYNALTRGCGRITLLMLGLALCQPVFAHPHSFIDMQTTVESQNDNITGLRMQWTMDPITSADLLYDAGKAKKDSEVWKKLAAEVMANVLGQHYFTDIYRDSQPVKYAPMPTEYHLSRKGNQAILEFVLPLAHPQPLAGKPLLISTYDPTYFVDMSYQNDKAVKLAPALASRCKTSLVTPKPNTELQSYALSLDKNDAPDEDMDLGKQFAQRVTLQCQ
MGSDKIHHHHHHMLITAYRERQTRHREKIQRLLNFLKEETYSDFKILMLLFGFRDHKSLYSLLSKVEGMGLIKKHVLVSRTMKISLWGITSDGLAVVLTPDDAIFPARFEPSKITGWTLEHHLDNQVARITLEQKGASGWVNGDRTTFLSRYEVSHRPDGLITLPGGTVIAIETERRLKTKARYQSILASHLLARTRKNWIYVFYIVPDPQKKRGLERLFEGIRHVIINHQHIPLETRHRNVFRIYTLDELQRLNLGHCL
MGSDKIHHHHHHMLKCSICINDERITRILIVDGRPICKECKVFLEHPPDKEKIKKELEEILSKVDKAIVAYSGGKDSIVALYLAKEKYSIDVEAVMVDHGFIAPQAIKNAKNVAKYLDVPLTIIKRDYSDIFREALLKAKSPCRKCSRRTMEILRKYALKKGYRYMITGHELPFGHHPYRLMSGGIIQVRILSLMSEEERMKILKKLPVELPELPGYTSNCLILGPALQRFWERHGYSFEHRRIAALVRYGLLNKEKALKKVQKPEVPQWQWELVKKKLKLEDGF
MGSDKIHHHHHHMLKDKMIAKGAKYIQSIYQDPFIQGIIKGRLDHDVICHYLQADNIYLGKFADIYALCLAKSDNLRDKQFFLEQIDFTLNRELADGEGPHQALAAYTNRSYQDIIEKGVWYPSADHYIKHMYFHFYENGIAGALAAMSPCPWIYHQLAKKIIEENQFLNGNPFNNWITFYANDTVEELMENYFRMMDYYAQNLSKEKQADLVDAFVKSCQHERRFFQMAINQEKWED
MGSDKIHHHHHHMLKKYLISLDKDIQRRELFFSQKNTEDFQVFSAINTMQKDWDELAAIFNIEQFKAHYFRNVTKGEIGCTLSHLSVYQKIVEDNDIAEDSYALVCEDDALFHSDFQQNLTALLSEKLEAEIILLGQSKINDFNDFDLEINYPTTFSFLCKKTGDVNYAFPYKSYFAGTVGYLIKKSAARRFIQQISQNKPFWLADDFLLFEQNFNIRNKVVRPLIVIENPVLISNLESVRGSLSNNLLKKLMKYPLKKIFAIKKNLAN
MGSDKIHHHHHHMLKRLLDYNEGEEFDLVLMVKNSELRQDKRGKHYLLMQLADSSGSIRANYWQAKAEDASRFNAGTVVEASGMIEDYHNHDQIKLFSIHPVSPDDQADLSQLVATAPEKPAEMEKEIKDFVAQIDNKNWHDLVDFLLKKWSSRFFAYPAGKSNHHAYKGGLAFHTLTMLKDARGLADNYPAVNRSLLYAGCILHDMGKVLELSGPVATQYTAEGNLVGHLVLIDEQLMLAAQELKIDLASEDLLLLRHMVLSHHGRYEYGSPKLPALLEAELLHRIDDLDAAVNAITTVNCPRPSRGNSPRR
MGSDKIHHHHHHMLLTRTQIRRLVYAHGREILEHDHMAIERVCYQHGVVTTFAHSIRVACLSVWLADRLHLWNRVDLRSLIRAALLHDYFLYDWHDWDNGTHRLHGFTHGETAMRNAIRDFKLNQIERDSIEHHMFPLTPYPPKYIEGYLVTAADKISATKETLSFDRFDKPASEQPTDRS
MGSDKIHHHHHHMLLYIHGFNSSPFSDKAVITAKYMAQHHPSVIFHQPQLPNTPKAAMALLTTYVEAAIDAKEPLAYIGSSLGGYFASYLAETYGGKAVLVNPAVKPFELFDEFMGPQFNPYTEQHYLVVPEHKREVAEFNTAVIRNPDRFLVLLQTGDEVLDYREAVNKYHHCQLRIEAGGDHSFVGYESHLQTVSQFLHLP
